For assay [1], the target named is CHR-derived peptide C34 of HIV-1 92RW020 gp41 (HIV-1 92RW020). The experiment in a line: ITC. Background: Isothermal titration calorimetry measures the heat released or taken up as one component is titrated into another.
The target in assay [2] is CHR-derived peptide C34 of HIV-1 92RW020 gp41 with the N126K mutation (HIV-1 92RW020). Kind of assay: ITC.
The target is the same in assay [3]. The experiment in a line: circular dichroism spectroscopy. A general note: Circular dichroism is widely used to follow secondary structure.
For assay [4], the target named is CHR-derived peptide C34 of HIV-1 JRFL gp41 with the N126K mutation (HIV-1 JRFL). Kind of assay: ITC.
Assay [5] deals with CHR-derived peptide C34 of HIV-1 JRFL gp41 (HIV-1 JRFL). Kind of assay: ITC.
In assay [6] the target is CHR-derived peptide C34 of HIV-1 JRFL gp41 with the N126K mutation (HIV-1 JRFL). Kind of assay: circular dichroism spectroscopy.
The target of assay [7] is CHR-derived peptide C34 of HIV-1 NL4-3 gp41 with the N126K mutation (HIV-1 NL4-3). The experiment in a line: ITC.
The target is the same in assay [8]. Kind of assay: circular dichroism spectroscopy.

In assay [1], “NHR-derived peptide N36 of HIV-1 92RW020 gp41” had a Ka of 940000 M⁻¹, a dH of -49 kcal/mol and a stoichiometry N of 1.4 Site. In addition, in assay [2], the Ka was determined as 1.3e+06 M⁻¹, the dH was -55 kcal/mol and the stoichiometry N was determined as 1 Site. Moreover, in assay [3], the Tm of the complex is 62.7 °C.

In the case of “NHR-derived peptide N36 of HIV-1 JRFL gp41”, in assay [4], the Ka is 1.2e+06 M⁻¹, the dH is -35 kcal/mol and the stoichiometry N was determined as 1.4 Site. In assay [5], this substance displayed a Ka of 430000 M⁻¹, a dH of -44 kcal/mol and a stoichiometry N of 1.3 Site. For the same substance, the Tm of the complex in assay [6] turned out to be 62.7 °C.

In assay [7], “NHR-derived peptide N36 of HIV-1 NL4-3 gp41 (from UniProt P04578 546-581)” registered a Ka of 1.9e+06 M⁻¹, a dH of -38 kcal/mol and a stoichiometry N of 1.2 Site. Besides, the Tm of the complex in assay [8] was found to be 68.5 °C.

As a reminder, the stoichiometry N is the number of molecules, sites or subunits per partner or assembly.

Values taken from PMC7150849.
